According to CN113683687A (EXCYTE BEIJING PHARMACEUTICAL TECH DEVELOPMENT CO LTD, dated 2021):
Positions count from the first letter of the chain named.

B1: CS2 (Fc fusion)
VH: EVQLVQSGAEVKKPGASVKVSCKASGGTFSSYAISWVRQAPGQGLEWMGGIIPIFGTANYAQKFQGRVTITADESTSTAYMELSSLRSEDTAVYYCARGSGDYGMDVWGQGTTVTVSS
VL: QSALTQPASVSGSPGQSITISCTGTSSDVGGYNYVSWYQQHPGKAPKLVISEVRNRPSGVSNRFSGSKSGNTASLTISGLQAEDEADYYCSSYTTRDTRVFGGGTQLTVL
notes: also called 抗体CS2
B2: CS7 (Fc fusion)
VH: B1 VH with A16S, F55L, T57I, E74K, G104S, T113L
VL: B1 VL with T5A, S36A, V49M, S51Y, R54S, Q106K
notes: also called 抗体CS7
B3: CS3 (Fc fusion)
VH: B1 VH with A16S, E74K
VL: B1 VL with G31L, V49M, I50V, R54S, Q106K, L107V
notes: also called 抗体CS3
B4: CS1 (Fc fusion)
VH: QVQLQQSGAEVKKPGSSVKVSCKASGGTFSSYAISWVRQAPGQGLEWMGGIIPIFGTANYAQKFQGRVTITADESTSTAYMELSSLRSEDTAVYYCARDRGVGRGYSYGFLPLDYWGQGTLVTVSS
VL: DIQMTQSPLSLPATPGEPASISCRSSQSLLHSDGYSYLHWYVQKPGQSPQLLISADSNRASGVPGRFSGSGSGTDFTLKISRVEAEDVGVYYCMQALQTPWTFGQGTKLDIK
notes: also called 抗体CS1

Target: T1, 新型冠状病毒(2019-nCoV)Spike蛋白 (全长三聚体S蛋白) (新型冠状病毒(2019-nCoV), UniProt P0DTC2 16-1213)
T1 construct: also called 病毒S蛋白
Experiment: Octet Blitz (BLI), scFv-Fc, apparent affinity

Binder	Kd [nM]
B1	2.1
B2	12.3
B3	23.2
B4	1.2
